Measured values: patent publication US20220064329A1 (Novo Nordisk, published 2022)

Molecular target: T1, FVII(a) variant M391A (human, UniProt P08709 61-466)
T1 construct: hFVII alanine variant in cell culture supernatant
T1 sequence: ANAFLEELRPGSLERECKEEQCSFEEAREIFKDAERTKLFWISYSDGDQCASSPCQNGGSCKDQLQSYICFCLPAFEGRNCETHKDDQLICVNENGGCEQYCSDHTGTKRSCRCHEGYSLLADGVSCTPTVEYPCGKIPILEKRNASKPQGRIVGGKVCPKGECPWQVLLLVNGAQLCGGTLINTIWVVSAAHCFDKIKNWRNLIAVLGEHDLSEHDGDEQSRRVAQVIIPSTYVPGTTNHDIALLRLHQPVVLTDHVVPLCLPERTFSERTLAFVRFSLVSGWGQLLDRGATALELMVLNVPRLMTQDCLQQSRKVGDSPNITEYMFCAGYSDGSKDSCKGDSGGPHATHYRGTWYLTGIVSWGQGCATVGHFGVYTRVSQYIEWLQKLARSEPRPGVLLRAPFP
Test: SPR, ratio of KD to KD of WT

Fold diff (Variant/WT): 0.8 fold
B1: mAb0842(OA) (antibody, human IgG4 S228P, kappa)
heavy: QVQLQESGPGLVKPSQTLSLTCTVSGYSISSDSAWSWIRQPPGKGLEWIGYIQYSGSTNYNPSLKSRVTISRDTSKNQFSLKLSSVTAADTAVYYCARSVNYYGNSFAVGYWGQGTLVTVSSASTKGPSVFPLAPCSRSTSESTAALGCLVKDYFPEPVTVSWNSGALTSGVHTFPAVLQSSGLYSLSSVVTVPSSSLGTKTYTCNVDHKPSNTKVDKRVESKYGPPCPPCPAPEFLGGPSVFLFPPKPKDTLMISRTPEVTCVVVDVSQEDPEVQFNWYVDGVEVHNAKTKPREEQFNSTYRVVSVLTVLHQDWLNGKEYKCKVSNKGLPSSIEKTISKAKGQPREPQVYTLPPSQEEMTKNQVSLSCAVKGFYPSDIAVEWESNGQPENNYKTTPPVLDSDGSFFLVSRLTVDKSRWQEGNVFSCSVMHEALHNHYTQKSLSLSLGK
light: EIVLTQSPATLSLSPGERATLSCRASQGISDYLHWYQQKPGEAPRLLIKYTSQPATGIPARFSGSGSGTDFTLTISSLEPEDFAVYYCQNGHSFPLTFGQGTKLEIKRTVAAPSVFIFPPSDEQLKSGTASVVCLLNNFYPREAKVQWKVDNALQSGNSQESVTEQDSKDSTYSLSSTLTLSKADYEKHKVYACEVTHQGLSSPVTKSFNRGEC
chain: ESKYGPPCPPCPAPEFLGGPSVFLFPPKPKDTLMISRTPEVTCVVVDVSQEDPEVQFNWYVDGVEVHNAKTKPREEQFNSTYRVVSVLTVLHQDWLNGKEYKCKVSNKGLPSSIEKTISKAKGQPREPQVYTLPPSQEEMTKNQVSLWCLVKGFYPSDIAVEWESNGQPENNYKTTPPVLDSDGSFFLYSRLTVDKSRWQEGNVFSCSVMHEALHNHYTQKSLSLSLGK
notes: also called monovalent humanized 11F2 antibody; one-armed anti-FVII(a) antibody
